Target: sHRPb-NLG (evolved sHRPb fused to neuroligin) (horseradish | not stated)
Experiment: split reporter

signal to noise ratio (fluorescence intensity relative to background): 1.5 to 13.4
Substance: sHRPa-NRX (evolved sHRPa fused to neurexin)
